Test results taken from patent publication US20240043504A1 (published 2024).
Where a chain is given by its changes, count along the chain named.

B1: mAb10936 (antibody, V domains shown)
VH: QVQLVESGGGVVQPGRSLRLSCAASGFTFRNYGMHWVRQAPGKGLEWVSVIWYDGSNRYYADSVKGRFTISRDTSKNTLYLQMNSLRAEDTAVYYCARDPPITGTTGGDAFDIWGQGTMVTVSS
VL: not shown
B2: mAb10966 (antibody, V domains shown)
VH: EVQLVESGGGLVQPGGSLRLSCAASGLTVSSNYMSWVRQAPGKGLEWVSVIYSGGSTFYADSVKGRFTISRDNSKNTLYLQMNSLRPEDTAVYYCAREGRIAATGYGMDVWGQGTTVTVSS
VL: not shown
B3: mAb10969 (antibody, V domains shown)
VH: QVQLVESGGGVVQPGRSLRLSCAASGFTFSSYAMHWVRQAPGKGLEWVAVISYDGSNKYYADSVKGRFTISRDNSKNTLYLQMNSLRAEDTAVYYCARDGRTITMVRGVIDDAFDIWGQGTMVTVSS
VL: not shown
B4: mAb10957 (antibody, V domains shown)
VH: EVQLVESGGGLVQPGGSLRLSCAASGVTVSSNYMSWVRQAPGKGLEWVSVIYSGGSTFYADSVKGRFTISRDNSKNTLFLQMNSLRIEDTAVYYCARDLGPYGMDVWGQGTTVTVSS
VL: DIQLTQSPSFLSASVGDRVTITCRASQGISSYLAWYQQKPGKAPKLLIYAASTLQSGVPSRFSGSGSGTQFILTISSLQPEDFATYYCQQLNSYPGFTFGPGTKVDIKR
B5: mAb10971 (antibody, V domains shown)
VH: B4 VH with V12I, A60S, T68S, F79Y, I87A, G100Y, P101Y
VL: B4 VL with S31T, Q70E, I72T, N92D, F97L, P101G, D106E
B6: mAb10982 (antibody, V domains shown)
VH: EVQLVESGGGLVQPGGSLRLSCAASGLTVSSNYMSWVRQAPGKGLEWVSVIYSGGTTYYADSVKGRFTISRHNSKNTLSLQMNSLRAEDTAVYYCARGEGANYYGMDVWGQGTTVTVSS
VL: QSVLTQPPSVSGAPGQRVTISCTGSSSNIGTGYDVHWYQQLPGTAPKLLIYGNSNRPSGVPDRFSGSKSGTSASLAITGLQAEDEADYYCQSYDSSLSGYVVFGGGTKLTVLG
B7: mAb10985 (antibody, V domains shown)
VH: EVQLVESGGGLVQPGRSLRLSCAASGFTFDDYAMHWVRQAPGKGLEWVSGISWNRGSIGYADSVKGRFTISRDNAKNSLYLQMSSLRAEDTALYYCAKDGERWDSVVVPSARNGMDVWGQGTTVTVSS
VL: B6 VL with T31A, Y100S, V101Y, G105T, L109V
B8: mAb10964 (antibody, V domains shown)
VH: QVQLQESGPGLVKPSETLSLTCTVSGGSINNYYWIWIRQPPGKGLEWIGYIYHSGSTNYNPSLKSRVTISVDTSKNQFSLKVSSVTAADTAVYYCANMVRGVYEDDYWGQGTLVTVSS
VL: DIQMTQSPSSLSASVGDRVTITCRASQSISNYLNWYQQKPGKAPKLLIFAASSLRSGVPSRFSGSGSGTDFTLTISSLHPEDFATYYCQQNYNTPLTFGPGTKVDIKR
B9: mAb10965 (antibody, V domains shown)
VH: EVQLVESGGGLIQPGGSLRLSCAASVFTVSYNYMSWVRQAPGKGLEWVSVIYSGGSTYYADSVKGRFTISRDNSKNTLYLQMNSLRAEDTAVYYCARALPGWGGSFEYFDYWGQGTLVTVSS
VL: not shown
B10: mAb10984 (antibody, V domains shown)
VH: EVQLVESGGGLVQPGGSLRLSCAASGLTVNRNYMSWVRQAPGKGLEWVSLIYSGGSTYYADSVKGRFTISRDNSKNTLYLQMNSLRLEDTAVYYCARGELGIPYGMDVWGQGTTVTVSS
VL: QSVLTQPPSVSAAPGQKVTISCSGSSSNIGNNYVSWYQQLPGTAPKLLIYDNNKRPSGIPDRFSGSKSGTSATLGITGLQTGDEADYYCGTWDSSLSAGVFGGGTKLTVLG
B11: mAb10938 (antibody, V domains shown)
VH: EVQLVESGGGLVQPGGSLRLSCAVSGFTVSSNYMSWVRQAPGKGLEWVSLIYSGGSTFYADSVKGRFTISRHNSKNTLYLQMNSLRAEDTAVYYCAREGGYSYDYNYWGQGTLVTVSS
VL: DIQMTQSPSSLSASVGDRVTITCQASQDIRNYLNWYQQKPGKAPKLLIYDASNLETGVPSRFSGIGSGTDFTFTISSLQPEDIATYYCQQYDNLPITFGQGTRLEIKR
B12: mAb10967 (antibody, V domains shown)
VH: EVQLVESGGGLVQPGGSLRLSCAASGFTVSSNYMSWVRQAPGKGLEWVSVIYPGGSTFYADSVKGRFTISRDNSKNTLYLQMNSLRAEDTAVYYCARDQRDFAWGQGTLVTVSS
VL: B11 VL with R30S, I65S, S77G, I96P
B13: mAb10954 (antibody, V domains shown)
VH: EVQLVESGGGLVQPGGSLRLSCAASGITVSSNYMSWVRQAPGKGLEWVSLIYSGGSTYYADSVKGRFTISRDNSKNTLYLQMNSLRVEDTAVYYCARDHGMAAAGYNYWGQGTLVTVSS
VL: B11 VL with R30N, N31K, I65S, S76N, I83F, Y87F, I96P, T97A, R103K, L104V
B14: mAb10955 (antibody, V domains shown)
VH: EVQLVESGGGLVQPGGSLRVSCAASGFTVSRNYMSWVRQAPGKGLEWVSVIYSGGSTFYADSVKGRFTISRDNSKNTLYLQMNSLRAEDTAIYYCARYIPRFDPWGQGTLVTVSS
VL: B11 VL with R30S, Y36F, K42R, I65S
B15: mAb10937 (antibody, V domains shown)
VH: QITLKESGPTLVKPTQTLTLTCTFSGFSLSTNVVGVGWIRQPPGKALEWLALIYWNDDKRYSPSLKSRLTITKDTSKNQVVLTMTNMDPVDTATYYCAHGPTGDYFDYWGQGTLVTVSS
VL: not shown
B16: mAb10939 (antibody, V domains shown)
VH: EVQLVESGGGLVQPGGSLRLSCAASGLTVSSNYMNWVRQVPGKGLEWVSVIYSGGSKFYVDSVKGRFTISRHNSKNTLYLQMNSLRPEDTAVYYCTRDAQYYGMDVWGQGTTVTVSS
VL: DIQMTQSPSSLSASVGDRVTITCRASQSISTYLHWYQQKPGEAPKLLIYAASSLQSGVPSRFSGSGSGTDFTLTISSLQPEDFATYYCQQSYSTPPEIFGQGTKLEIKR
B17: mAb10956 (antibody, V domains shown)
VH: B4 VH with V27L, F79Y, I87A, G100I, P101K
VL: not shown

Target: SARS-COV-2 RBD extracellular domain expressed with a C-terminal mouse IgG2a (SARS-CoV-2)
Test: SPR Biacore, mAb captured via anti-hFc, 25 C

Binder	Kd	koff	kon	t½
B1	0.0283 nM	5.04e-05 s⁻¹	1.78e+06 M⁻¹ s⁻¹	3.82 h
B2	0.0224 nM	–	–	5.71 h
B3	0.216 nM	–	–	1.93 h
B4	0.0327 nM	–	–	5.75 h
B5	0.0292 nM	4.09e-05 s⁻¹	1.4e+06 M⁻¹ s⁻¹	4.71 h
B6	0.0886 nM	8.06e-05 s⁻¹	910000 M⁻¹ s⁻¹	2.39 h
B7	0.0105 nM	–	–	2.26 h
B8	0.00397 nM	–	–	5.22 h
B9	0.225 nM	–	–	1.23 h
B10	0.0286 nM	–	–	4.85 h
B11	0.0702 nM	–	–	11.4 h
B12	0.0203 nM	–	–	14.3 h
B13	0.0203 nM	–	–	4.03 h
B14	0.0771 nM	–	–	2.09 h
B15	0.0304 nM	5.4e-05 s⁻¹	1.78e+06 M⁻¹ s⁻¹	3.56 h
B16	0.121 nM	8.74e-05 s⁻¹	722000 M⁻¹ s⁻¹	2.2 h
B17	0.0887 nM	–	–	1.48 h
